The target in data set [1] is T1, Glycoprotein VI extracellular domain (Gln21-Lys267) (Homo sapiens, UniProt Q9HCN6 SEQ:1-247).
T1 chain: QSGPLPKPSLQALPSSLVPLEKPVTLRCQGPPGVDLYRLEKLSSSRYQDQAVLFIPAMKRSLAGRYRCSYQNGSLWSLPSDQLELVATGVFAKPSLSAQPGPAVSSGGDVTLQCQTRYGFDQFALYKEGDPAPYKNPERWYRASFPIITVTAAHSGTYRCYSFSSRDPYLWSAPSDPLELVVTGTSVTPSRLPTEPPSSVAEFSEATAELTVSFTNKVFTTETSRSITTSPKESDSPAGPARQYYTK
Kind of data set: competition; competition with radiolabeled parent. As to conditions: tags: C-terminal His6; R&D Systems 3627-GP.

The target of data set [2] is T1, Glycoprotein VI extracellular domain …. Description: competition; competition with radiolabeled parent ligand. As to conditions: tags: C-terminal His6; R&D Systems 3627-GP.
Data set [3] shares this target. Description: filter; binding comparable with and without annealed 3' primer. As to conditions: tags: C-terminal His6; R&D Systems 3627-GP; label: 5'-32P; 3' fixed region paired with DNA primer. The protocol: The reaction was phenol:chloroform:isoamyl alcohol (25:24:1) extracted, chloroform: isoamyl:alcohol (24:1) extracted, and ethanol precipitated. Three pmoles of dephosphorylated RNA was end labeled with T4 Poylnucleotide Kinase with supplied buffer, and 20 μCi of γ-P³²-ATP and subsequently cleaned with a Biorad MicroBio Spin P-30 spin column. End-labeled RNA was diluted to a final concentration of 2000 cpm/μL and heat denatured at 65° C. for 5 minutes. RNA and GPVI dilutions were equilibrated at 37° C. prior to use. RNA (5 μL) was added to varying concentrations of GPVI (15 μL) at 37° C. and incubated together for 5 to 15 minutes. The complexed RNA/GPVI protein mixture was then loaded over a Protean BA85 nitrocellulose membrane, overlayed on a Genescreen Plus Nylon membrane, in a 96 well vacuum manifold system with washing. The membranes were exposed to a phosphorimager screen, scanned, and quantitated with a Molecular Dynamics Storm 840 Phosphorimager. The fraction bound was calculated by dividing the counts on the nitrocellulose by the total counts and adjusting for the background. Results for binding of enriched ligand libraries from round 10 E2 and round 10 EF of the SELEX as compared to the GPVI-naïve starting ligand library are shown in FIG. 3. […]

The target is the same in data set [4]. Kind of data set: filter; text: family range about 11 to 50 nM, EF-1 lowest affinity. The conditions noted are these: tags: C-terminal His6; R&D Systems 3627-GP; label: 5'-32P. The procedure:
(§1) Enrichment of the ligand libraries for GPVI was monitored in direct binding studies utilizing radiolabeled ligand RNA from respective rounds of SELEX and soluble GPVI. Binding studies were performed with trace P³² end-labeled RNA added to serial dilutions of GPVI in Binding Buffer F. To prepare radiolabeled RNAs for binding studies, one hundred picomoles of RNA was dephosphorylated with Bacterial Alkaline Phopshatase at 50° C. for 1 hour. The reaction was phenol:chloroform:isoamyl alcohol (25:24:1) extracted, chloroform: isoamyl:alcohol (24:1) extracted, and ethanol precipitated. Three pmoles of dephosphorylated RNA was end labeled with T4 Poylnucleotide Kinase with supplied buffer, and 20 μCi of γ-P³²-ATP and subsequently cleaned with a Biorad MicroBio Spin P-30 spin column. End-labeled RNA was diluted to a final concentration of 2000 cpm/μL and heat denatured at 65° C. for 5 minutes. […] The membranes were exposed to a phosphorimager screen, scanned, and quantitated with a Molecular Dynamics Storm 840 Phosphorimager. The fraction bound was calculated by dividing the counts on the nitrocellulose by the total counts and adjusting for the background. […]
(§2) The affinity of each of the anti-GPVI ligands for GPVI was determined by direct binding studies using radiolabeled trace ligand RNA and soluble GPVI, per the binding methodology described above in Example 1.

For data set [5] the target is unchanged. Kind of data set: filter; p374 states 2-4 nM; buffer F (150 mM NaCl, 2 mM CaCl2), 37 C. The conditions noted are these: tags: C-terminal His6; R&D Systems 3627-GP; label: 5'-32P. The procedure: as §1, with “minutes. RNA and GPVI dilutions were equilibrated at 37° C. prior to use. RNA (5 μL) was added to varying concentrations of GPVI (15 μL) at 37° C. and incubated together for 5 to 15 minutes.” for “minutes.”

For data set [6] the target is unchanged. Kind of data set: filter; text p359 names it EF-3 T2mut8. The conditions noted are these: tags: C-terminal His6; R&D Systems 3627-GP; label: 5'-32P. The procedure: as §1, with “minutes. RNA and GPVI dilutions were equilibrated at 37° C. prior to use. RNA (5 μL) was added to varying concentrations of GPVI (15 μL) at 37° C. and incubated together for 5 to 15 minutes.” for “minutes.”

For data set [7] the target is unchanged. Kind of data set: filter; text p359 names it EF-3 T2 mut9. As to conditions: tags: C-terminal His6; R&D Systems 3627-GP; label: 5'-32P. The procedure: as §1, with “minutes. RNA and GPVI dilutions were equilibrated at 37° C. prior to use. RNA (5 μL) was added to varying concentrations of GPVI (15 μL) at 37° C. and incubated together for 5 to 15 minutes.” for “minutes.”

The target is the same in data set [8]. Kind of data set: filter; text p359 names it EF-3 T2mut10. As to conditions: tags: C-terminal His6; R&D Systems 3627-GP; label: 5'-32P. The procedure: as §1, with “minutes. RNA and GPVI dilutions were equilibrated at 37° C. prior to use. RNA (5 μL) was added to varying concentrations of GPVI (15 μL) at 37° C. and incubated together for 5 to 15 minutes.” for “minutes.”

For data set [9] the target is unchanged. Description: filter; buffer F, 37 C. As to conditions: tags: C-terminal His6; R&D Systems 3627-GP; label: 5'-32P. The protocol:
as §1, §2

Data set [10] has the same target. Kind of data set: filter; buffer F, 37 C. The conditions noted are these: tags: C-terminal His6; R&D Systems 3627-GP; label: 5'-32P.
Data set [11] shares this target. Kind of data set: competition; 5' linker ligands assayed by competition. As to conditions: tags: C-terminal His6; R&D Systems 3627-GP.
For data set [12] the target is unchanged. Kind of data set: filter; equivalent to full-length EF-1. As to conditions: tags: C-terminal His6; R&D Systems 3627-GP; label: 5'-32P. The procedure: as §1, with “minutes. RNA and GPVI dilutions were equilibrated at 37° C. prior to use. RNA (5 μL) was added to varying concentrations of GPVI (15 μL) at 37° C. and incubated together for 5 to 15 minutes.” for “minutes.”

On to GGAGGACGGCGCGCCUGGCAUAAGCCUCC (ssRNA, RB566 with 2'-OMe G1 and 5' hexylamino linker) [RB567], for which, in data set [1], the Kd (as a rule, the equilibrium constant for the complex coming apart) is less than 10 nM. Still for that read-out and setting: to GGAGGACGGCGCGCCUGGCAUAAGCCUCC (ssRNA, RB540 with 2'-OMe G1 and 5' hexylamino linker) [RB542] belongs 15.5 nM. Regarding GGAGGACGGCGCGCCUGGCAUAAGCCUCC (ssRNA, RB567 with 5' branched 40 kDa PEG) [RB571], in [2], the dissociation constant (Kd) is roughly 5 nM.

Turning to GGAGGACGGCGCGCCUGGCAUAAGCCUCC (ssRNA, RB542 with 5' branched 40 kDa PEG) [RB570], the Kd in [1] turned out to be 15.5 nM.

B1: EF-3 annealed to 3' DNA primer (mixed)
RNA: GGGAGGACGAUGCGGAUCACACCGCGUCUUGCGUAAGCCUCCUACUAACGGAUCGCAGACGACUCGCUGAGGAUCCGAGA
DNA: TCTCGGATCCTCAGCGAGTCGTCTG
modifications: RNA strand 2'-F C and U; 2'-OH A and G
Take B1: in data set [3], the binding result is given as “binds”.

B2: EF-1 (RB424) (ssRNA)
RNA: GGGAGGACGAUGCGGCAAUCGAAGCUGCAUCCAGCGUAAGCCUUCCAGGGAUCGUCAGACGACUCGCUGAGGAUCCGAGA
modifications: 2'-F C and U; 2'-OH A and G
For the molecule B2, the Kd in data set [4] is greater than 40 nM. GGAGGACGGCGCGCCUGGCAUAAGCCUCC (ssRNA, RB540 with PS G8-G9 and G9-C10) [RB566] had a Kd in data set [5] of roughly 2.45 nM.

In data set [6], GGGAGGACGGCGAUCACACGCCUGGCGUAAGCCUCCC (ssRNA, 2'-F C and U; 2'-OH A and G) [EF-3 T5 mut8] yielded a Kd of 15.5 nM. GGGAGGACGGCGAUCACACGCCUUGCAUAAGCCUCCC (ssRNA, 2'-F C and U; 2'-OH A and G) [EF-3 T5 mut9] had a Kd in data set [7] of 15.5 nM. In turn, GGGAGGACGGCGAUCACACGCCUGGCAUAAGCCUCCC (ssRNA, 2'-F C and U; 2'-OH A and G) [EF-3 T5 mut10] registered a Kd in data set [8] of 15.5 nM.

B3: EF-2 (RB427) (ssRNA)
RNA: GGGAGGACGAUGCGGUGCCAAAACACCCGUCUUGCAUAAGCCUCCUACGGCAACUCAGACGACUCGCUGAGGAUCCGAGA
modifications: 2'-F C and U; 2'-OH A and G
In the case of B3, the Kd in data set [9] stood at 15.5 nM. GGAGGACGGCGCGCCUGGCAUAAGCCUCC (ssRNA, RB560 with 5' branched 40 kDa PEG) [RB569]: the Kd in [1] was less than 10 nM.

GGAGGACGGCGCGCCUGGCAUAAGCCUCC (ssRNA, RB540 with PS G8-G9) [RB549] displayed a Kd in data set [10] of roughly 6.48 nM. For GGAGGACGGCGCGCCUGGCAUAAGCCUCC (ssRNA, RB549 with 2'-OMe G1 and 5' hexylamino linker) [RB560], the Kd in data set [1] was less than 10 nM. In the case of GGGAGGACGGCGCUAACGCCUGGCAUAAGCCUCCC (ssRNA, 2'-F C and U; 2'-OH A and G; 3' idT) [RB448], the Kd in data set [10] is roughly 14.5 nM. With GGGAGGACGGCGCGCCUGGCAUAAGCCUCCC (ssRNA, RB490 with 5' hexylamino linker) [RB508], the Kd in data set [11] was less than 10 nM.

In data set [10], GGGAGGACGGCGCGCCUGGCAUAAGCCUCCC (ssRNA, RB490 with 2'-OMe G6,C15,A21,A23,A24,G25) [RB520] gave a Kd of roughly 6 nM. With GGGAGGACGAUGCGGCAAUCGAAGCUGCAUCCAGCGUAAGCCUUCC (ssRNA, 2'-F C and U; 2'-OH A and G) [EF-1 T1 (RB426)], the dissociation constant (Kd) in [12] was greater than 40 nM.

These data come from patent publication US20100311820, “NUCLEIC ACID MODULATORS OF GLYCOPROTEIN VI” (Regado Biosciences, Inc, published 2010).
